The target of test [1] is Monoubiquitinated PCNA ((Ub)3-PCNA): a single ubiquitin moiety on K164 of each monomer within a homotrimeric clamp ring (human) (UniProt P12004).
The target of test [2] is Wild-type PCNA (human) (human) (UniProt P12004).

The values that follow come from publication PMC5123862.

Chain of Wild-type PCNA (human) (human) (P12004 whole entry): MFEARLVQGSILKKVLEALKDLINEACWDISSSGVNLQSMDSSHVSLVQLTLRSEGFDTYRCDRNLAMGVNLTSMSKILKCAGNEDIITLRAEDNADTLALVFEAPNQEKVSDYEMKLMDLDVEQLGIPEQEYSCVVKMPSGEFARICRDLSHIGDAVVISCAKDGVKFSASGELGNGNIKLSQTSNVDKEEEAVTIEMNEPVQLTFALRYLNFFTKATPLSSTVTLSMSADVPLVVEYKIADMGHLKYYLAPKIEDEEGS

B1: Pol η (human DNA polymerase eta, full length, wild type, unlabeled) (enzyme)
chain: MATGQDRVVALVDMDCFFVQVEQRQNPHLRNKPCAVVQYKSWKGGGIIAVSYEARAFGVTRSMWADDAKKLCPDLLLAQVRESRGKANLTKYREASVEVMEIMSRFAVIERASIDEAYVDLTSAVQERLQKLQGQPISADLLPSTYIEGLPQGPTTAEETVQKEGMRKQGLFQWLDSLQIDNLTSPDLQLTVGAVIVEEMRAAIERETGFQCSAGISHNKVLAKLACGLNKPNRQTLVSHGSVPQLFSQMPIRKIRSLGGKLGASVIEILGIEYMGELTQFTESQLQSHFGEKNGSWLYAMCRGIEHDPVKPRQLPKTIGCSKNFPGKTALATREQVQWWLLQLAQELEERLTKDRNDNDRVATQLVVSIRVQGDKRLSSLRRCCALTRYDAHKMSHDAFTVIKNCNTSGIQTEWSPPLTMLFLCATKFSASAPSSSTDITSFLSSDPSSLPKVPVTSSEAKTQGSGPAVTATKKATTSLESFFQKAAERQKVKEASLSSLTAPTQAPMSNSPSKPSLPFQTSQSTGTEPFFKQKSLLLKQKQLNNSSVSSPQQNPWSNCKALPNSLPTEYPGCVPVCEGVSKLEESSKATPAEMDLAHNSQSMHASSASKSVLEVTQKATPNPSLLAAEDQVPCEKCGSLVPVWDMPEHMDYHFALELQKSFLQPHSSNPQVVSAVSHQGKRNPKSPLACTNKRPRPEGMQTLESFFKPLTH
As for B1, the abundance of the pol η TLS complex (P2, probability of insertion at i = 2) on undamaged TT P/T DNA: increase in the presence of (Ub)3-PCNA in test [1] stood at 2.75 fold. Further, in test [2], the abundance of the pol η TLS complex (P2, probability of insertion at i = 2) on undamaged TT P/T DNA: increase in the presence of PCNA worked out at 2.53 fold and the primer extension by pol η on the undamaged TT P/T DNA substrate under single turnover conditions: stimulation in the presence of PCNA against pol η alone came out at 2.02 fold.
